From paper PMC7360973
One block for each binder: values may come before it.

What was measured:
Details in all cases: remark: other sources report otherwise
[1] = target: T1, Human heat shock transcription factor 1 (Hsf1), wild type (human), Q00613; assay: SEC + native gel or EMSA; trimer-to-monomer ratio of freshly purified Hsf1 in the absence of heat shock, by gel filtration (Superdex 200) and BN-PAGE
T1 chain: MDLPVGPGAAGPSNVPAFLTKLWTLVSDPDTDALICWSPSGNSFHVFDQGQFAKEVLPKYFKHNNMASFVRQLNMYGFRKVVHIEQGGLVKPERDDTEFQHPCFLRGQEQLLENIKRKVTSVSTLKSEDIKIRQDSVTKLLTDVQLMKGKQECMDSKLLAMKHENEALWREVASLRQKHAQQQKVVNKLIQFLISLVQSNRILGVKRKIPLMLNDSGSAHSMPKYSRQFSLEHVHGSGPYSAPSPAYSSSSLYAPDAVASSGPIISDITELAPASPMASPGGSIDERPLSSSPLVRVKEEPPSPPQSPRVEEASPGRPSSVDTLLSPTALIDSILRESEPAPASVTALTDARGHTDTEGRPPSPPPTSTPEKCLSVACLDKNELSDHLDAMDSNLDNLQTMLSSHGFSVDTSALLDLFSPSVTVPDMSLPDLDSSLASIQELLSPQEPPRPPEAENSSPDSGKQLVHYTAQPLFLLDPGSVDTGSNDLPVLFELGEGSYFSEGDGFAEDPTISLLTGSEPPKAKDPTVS

[2] = target: T1, Human heat shock transcription factor 1 …; assay: native gel or EMSA; blue-native PAGE (8% gel, on ice) of purified Hsf1 wild type or variants, also after 10 min at 4–42°C (5 μM protein); Coomassie stain or immunoblot with Hsf1 antiserum
[3] = target: T2, Hsf1 wild type expressed from pIRES‐HSF1_hrGFP in cells (human), Q00613; assay: native gel or EMSA; blue-native PAGE of lysates (15 μg total protein) of transfected HSF1−/− MEFs, immunoblot with Hsf1 antiserum
T2 chain: T1 chain

stoichiometry N [1]: 3 | stoichiometry N [2]: 3
B1: Human heat shock transcription factor 1 (Hsf1), wild type, Q00613 1-529 (natural protein)
chain: T1 chain

stoichiometry N [3]: 3
B2: Hsf1 wild type expressed from pIRES‐HSF1_hrGFP in cells, Q00613 1-529 (natural protein)
chain: T1 chain
